In patent publication US20230140293A1:

How the values were obtained:
Assay in all cases: ELISA, gp120 on plate
[1] = biological target: CH505 w053.31 gp120 (HIV-1)
[2] = biological target: CH505 w020.14 gp120 (HIV-1)
[3] = biological target: CH505 w030.21 gp120 (HIV-1)
[4] = biological target: CH505 w100.B6 gp120 (HIV-1)
[5] = biological target: CH505 transmitted/founder (TF) gp120 (HIV-1)
[6] = biological target: CH505 w030.28 gp120 (HIV-1)
[7] = biological target: CH505 w078.15 gp120 (HIV-1)
[8] = biological target: CH505 w078.33 gp120 (HIV-1)
[9] = biological target: CH505 w053.16 gp120 (HIV-1)
CH505 M11 gp120 (HIV-1) = biological target: CH505 M11 gp120 (HIV-1)
CH505 M5 gp120 (HIV-1) = biological target: CH505 M5 gp120 (HIV-1)

## CH105 (antibody)
[1]
  log AUC: 13.5 log AUC
[2]
  log AUC: 10.4 log AUC
[3]
  log AUC: 10.6 log AUC
[4]
  log AUC: 11 log AUC
[5]
  log AUC: 11.2 log AUC
[6]
  log AUC: 9.1 log AUC
[7]
  log AUC: 10.1 log AUC
[8]
  log AUC: 8.9 log AUC
[9]
  log AUC: 9 log AUC
CH505 M11 gp120 (HIV-1)
  log AUC: 11.7 log AUC
CH505 M5 gp120 (HIV-1)
  log AUC: 8.6 log AUC

## CH106 (antibody)
[1]
  log AUC: 13.4 log AUC
[2]
  log AUC: 11.2 log AUC
[3]
  log AUC: 10.9 log AUC
[4]
  log AUC: 11.8 log AUC
[5]
  log AUC: 11.3 log AUC
[6]
  log AUC: 11.7 log AUC
[7]
  log AUC: 11 log AUC
[8]
  log AUC: 9.5 log AUC
[9]
  log AUC: 9.8 log AUC
CH505 M11 gp120 (HIV-1)
  log AUC: 12.8 log AUC
CH505 M5 gp120 (HIV-1)
  log AUC: 8.4 log AUC
